How the values were obtained:
His-tagged ERG [1] = target: T1, His-tagged ERG (Homo sapiens (Human), UniProt P11308); test: His-tag pull-down; AlphaScreen
T1 chain: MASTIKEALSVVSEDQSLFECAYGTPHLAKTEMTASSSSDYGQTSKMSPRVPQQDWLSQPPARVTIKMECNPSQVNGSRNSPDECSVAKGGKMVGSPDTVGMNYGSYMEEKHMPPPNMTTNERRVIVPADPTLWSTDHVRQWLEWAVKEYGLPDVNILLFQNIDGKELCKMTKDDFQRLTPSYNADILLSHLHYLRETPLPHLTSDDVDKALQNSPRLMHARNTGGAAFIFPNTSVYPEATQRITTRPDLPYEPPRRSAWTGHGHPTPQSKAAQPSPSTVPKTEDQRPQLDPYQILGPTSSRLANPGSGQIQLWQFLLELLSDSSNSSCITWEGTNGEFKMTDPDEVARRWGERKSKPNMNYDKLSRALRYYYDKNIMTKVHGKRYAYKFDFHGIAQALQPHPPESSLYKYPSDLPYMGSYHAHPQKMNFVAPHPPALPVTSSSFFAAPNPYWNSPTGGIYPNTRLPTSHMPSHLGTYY

His-tagged ERG [2] = target: T1, His-tagged ERG; test: His-tag pull-down

B1: FLAG-GST-EWS 1-355aa (protein)
chain: MASTDYSTYSQAAAQQGYSAYTAQPTQGYAQTTQAYGQQSYGTYGQPTDVSYTQAQTTATYGQTAYATSYGQPPTGYTTPTAPQAYSQPVQGYGTGAYDTTTATVTTTQASYAAQSAYGTQPAYPAYGQQPAATAPTRPQDGNKPTETSQPQSSTGGYNQPSLGYGQSNYSYPQVPGSYPMQPVTAPPSYPPTSYSSTQPTSYDQSSYSQQNTYGQPSSYGQQSSYGQQSSYGQQPPTSYPPQTGSYSQAPSQYSQQSSSYGQQSSFRQDHPSSMGVYGQESGGFSGPGENRSMSGPDNRGRGRGGFDRGGMSRGGRGGGRGGMGSAGERGGFNKPGGPMDEGPDLDLGPPVDPD
B1: binds (His-tagged ERG [1]).

B2: FLAG-GST-EWS 459-656aa (protein)
chain: PPREGRGMPPPLRGGPGGPGGPGGPMGRMGGRGGDRGGFPPRGPRGSRGNPSGGGNVQHRAGDWQCPNPGCGNQNFAWRTECNQCKAPKPEGFLPPPFPPPGGDRGRGGPGGMRGGRGGLMDRGGPGGMFRGGRGGDRGGFRGGRGMDRGGFGGGRRGGPGGPPGPLMEQMGGRRGGRGGPGKMDKGEHRQERRDRPY
B2: no binding (His-tagged ERG [2]).

— article PMC7485968 (2020)
